Assay [1] has as its target T1, AMH truncated antigen 40-45 (human).
T1 peptide: REDLDW
Briefly: competition ELISA, antibody preincubated with target, AMH-coated plate. On the procedure: (§1) 1. AMH antigen was diluted with carbonic acid buffer (20 mmol/L CB, pH 9.6) and then coated on a polyvinyl chloride plate. In the pretreatment, the antibody purified by the protein A column and the synthesized AMH truncated antigen sequences (see Table 3 for each synthetic sequence) were subjected to proportion incubation (100 ng/ml antibody: 50 ug/ml truncated antigen) for 30 minutes, that were test samples; the control sample was 100 ng/ml antibody: PBS, incubation for 30 minutes, and then the test samples after incubation and the control sample were added to AMH antigen plate and incubated for 30 minutes, the plate was washed for 5 times, added with GAM-HRP (1/5000 dilution) and incubated for 30 minutes, the plate was washed for 5 times, and the substrate was added and incubated for 15 minutes. The values under wavelength of 450/620 were read by microplate reader, and the detected OD values were finally calculated and analyzed. The calculation formula was: (control sample OD value−test sample OD value)/control sample OD value, and the criterion for determination was as follows: more than 90%, which indicated a good competitive effect, showing that the antibody should recognize the epitope.
For orientation: ELISA stands for enzyme-linked immunosorbent assay.

For assay [2], the target named is T2, AMH truncated antigen 37-45 (human).
T2 peptide: LIFREDLDW
The assay is described as above. How it is done: as §1

Assay [3] concerns the target T3, AMH3647-23 (Cattle sequence) (Cattle).
T3 peptide: ALIFQQAWDWPL
Briefly: competition ELISA, AMH-coated plate. On the procedure:
(§2) 1. AMH antigen was diluted with carbonic acid buffer (20 mmol/L CB, pH 9.6) and then coated on a polyvinyl chloride plate. In the pretreatment, the antibody purified by the protein A column and the synthesized short peptides with different human AMH36-47 amino acid mutations (see Table 6 for each synthesized sequence) were subjected to proportion incubation (100 ng/ml antibody: 50 ug/ml truncated antigen) for 30 minutes, that were test samples; the control sample was (100 ng/ml antibody: PBS) and incubated for 30 minutes, and then the test samples after incubation and the control sample were added to AMH antigen plate and incubated for 30 minutes, the plate was washed for 5 times, added with GAM-HRP (1/5000 dilution) and incubated for 30 minutes, the plate was washed for 5 times, and the substrate was added and incubated for 15 minutes. The values under wavelength of 450/620 were read by microplate reader, and the detected OD values were finally calculated and analyzed. The calculation formula was: (control sample OD value−test sample OD value)/control sample OD value, and the criterion for determination was as follows: 90% or more, which represented that there was cross-reaction.

Assay [4] addresses T4, AMH3647-25 (Horse sequence) (Horse).
T4 peptide: GLIFHQDWDWPP
Briefly: competition ELISA, AMH-coated plate. On the procedure: as §2

The target in assay [5] is T5, AMH3647-19 (Dog sequence) (Dog).
T5 peptide: GLLFQPDWDWPP
The assay can be described thus: competition ELISA, AMH-coated plate. On the procedure: as §2

Assay [6] concerns the target T6, AMH3647-22 (Mouse sequence) (Mouse).
T6 peptide: GLIFLEDELWPP
The assay can be described thus: competition ELISA, AMH-coated plate. On the procedure:
as §2

The target in assay [7] is T7, AMH truncated antigen 426-525aa (human).
T7 peptide: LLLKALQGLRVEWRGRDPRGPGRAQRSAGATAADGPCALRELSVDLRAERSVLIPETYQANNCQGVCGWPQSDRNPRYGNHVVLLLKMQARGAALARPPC
Briefly: competition ELISA, antibody preincubated with target, AMH-coated plate.

In assay [8] the target is T8, AMH truncated antigen 256-355aa (human).
T8 peptide: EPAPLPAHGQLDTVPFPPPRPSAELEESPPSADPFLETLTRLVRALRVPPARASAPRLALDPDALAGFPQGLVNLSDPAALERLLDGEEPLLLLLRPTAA
The description is as above.

Assay [9] addresses T9, AMH truncated antigen 461-560aa (human).
T9 peptide: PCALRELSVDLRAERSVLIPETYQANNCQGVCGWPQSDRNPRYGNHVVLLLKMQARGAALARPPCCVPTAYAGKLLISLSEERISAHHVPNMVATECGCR
Described as above.

The target in assay [10] is T10, AMH truncated antigen 341-440aa (human).
T10 peptide: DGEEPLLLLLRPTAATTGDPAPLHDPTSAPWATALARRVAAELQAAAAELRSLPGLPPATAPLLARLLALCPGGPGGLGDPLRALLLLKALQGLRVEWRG
Described as above.

For assay [11], the target named is T11, recombinant human AMH (anti-Mullerian Hormone) (human, UniProt P03971 25-560).
T11 construct: range 1-560; also called AMH antigen; AMH (1-560)
T11 sequence (looked up): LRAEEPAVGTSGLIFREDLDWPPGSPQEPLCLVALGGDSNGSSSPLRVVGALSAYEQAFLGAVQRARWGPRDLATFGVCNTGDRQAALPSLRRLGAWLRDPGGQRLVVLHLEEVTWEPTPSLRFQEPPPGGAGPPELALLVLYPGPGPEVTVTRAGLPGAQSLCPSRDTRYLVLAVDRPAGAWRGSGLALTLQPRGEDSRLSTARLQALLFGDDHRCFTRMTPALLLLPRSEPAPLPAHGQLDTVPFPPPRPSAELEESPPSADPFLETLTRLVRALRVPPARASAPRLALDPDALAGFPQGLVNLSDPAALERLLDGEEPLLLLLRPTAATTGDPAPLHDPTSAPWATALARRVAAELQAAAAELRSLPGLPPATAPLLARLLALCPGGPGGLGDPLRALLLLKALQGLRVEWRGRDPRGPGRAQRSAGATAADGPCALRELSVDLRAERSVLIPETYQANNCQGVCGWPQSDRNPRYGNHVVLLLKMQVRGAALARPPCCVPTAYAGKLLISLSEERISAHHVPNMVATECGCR
Described as above.

The target of assay [12] is T12, AMH truncated antigen 171-270aa (human).
T12 peptide: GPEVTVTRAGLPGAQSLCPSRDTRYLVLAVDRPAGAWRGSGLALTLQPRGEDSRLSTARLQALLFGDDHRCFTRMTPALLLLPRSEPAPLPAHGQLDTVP
The description is as above.

Assay [13] concerns the target T13, AMH truncated antigen 86-185aa (human).
T13 peptide: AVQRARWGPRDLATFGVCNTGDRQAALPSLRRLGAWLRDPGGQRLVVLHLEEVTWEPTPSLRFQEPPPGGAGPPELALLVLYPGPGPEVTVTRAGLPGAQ
Described as above.

Assay [14] addresses T14, AMH truncated antigen 26-85 aa (human).
T14 peptide: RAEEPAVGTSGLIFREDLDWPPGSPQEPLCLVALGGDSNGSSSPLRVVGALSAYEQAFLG
The description is as above.

B1: monoclonal antibody C9F2-2 (antibody, V domains shown)
VH: EVQLVESGGGLVKPGGSLKLSCAASGFAFSTYDMSWVRQTPEKRLEWVAYISPGGGATYYPDTVKGRFTISRDNAKNTLYLQMTSLKSEDTAMYYCAGRRDYYGMDYWGQGTSVTVSS
VL: DVVMTQTPLSLPVSLGDQASISCRSSQSLVHSNGNTYLHWYLQKPGQSPKLLIYKVSNRFSGVPDRFSGSGSGTDFTLKISRVEAEDLGVYFCSQSTHVPWTFGGGTKLEIK
notes: Mouse hybridoma antibody purified from ascites; the tie is indirect; also called hybridoma CCTCC NO: C2018183
For the molecule B1, the percent inhibition is -14% in assay [1]; 91% in assay [2]; 1% in assay [7]; 1% in [8]; 6% in assay [9]; 10% in assay [10]. Besides, the percent inhibition in [11] is 92%; in assay [12], 0%; in assay [13], 2%; in assay [14] it was 99%. Besides, the binding result in assay [3], in assay [4], in assay [5] and in assay [6] was “no binding (tested: 50 ug/ml peptide)” throughout.
